Measurements reported in the supplement of paper PMC10126150.
± gives the standard deviation of the averaged measurements.

Tested on: ATP
Test: switch fluorescence ratio, 500 uM ATP over buffer (Cy3 cluster intensity, sum of 5 cycles each) (fold (ratio)); higher = stronger signal-on switching upon ATP binding; sequences stand for … in TCGTCGGCAGCGTCAGATGTGTATAAGAGACAGTTTTTTTTTTTTTTTTTTTTTTTTT…TC
Settings: aptamer strand: ATP DNA aptamer (quencher-CACCTGGGGGAGTATTGCGGAGGAAGG + anchor), 100 nM annealed; ATP concentration: 500 uM
How it was run: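 Values give the fluorescence ratio for each switch-domain sequence, averaged from per-cluster ratios of summed target-cycle to summed buffer-cycle Cy3 intensity. The Cy3-labelled switching-strand clusters sat on a modified Illumina MiSeq flow-cell, were annealed to 100 nM quencher-labelled ATP aptamer, and were imaged in selection buffer, then after 15 min with 500 uM ATP at 22 °C. Five cycles ran with NaOH stripping and re-annealing between them, and clusters outside 100-1000 RFU were excluded.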
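Note: ATP exposure 15 min at 22 °C before imaging.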

Sequence | switch fluorescence ratio
CAAGAGAATT | 0.9939 ± 0.005
CAAGAGGGCT | 1.024 ± 0.0043
CAAGAGGGGT | 1.01 ± 0.016
CAAGATAGGG | 1.01 ± 0.026
CAAGATGCTC | 1.43 ± 0.03
CAAGATGGGG | 0.95 ± 0.023
CAAGATTCGG | 0.986 ± 0.018
CAAGCATTTT | 1.011 ± 0.0016
CAAGCGGATT | 1 ± 0.033
CAAGCTAGCG | 1.04 ± 0.016
CAAGCTTGAA | 0.963 ± 0.026
CAAGGAGGGT | 0.9726 ± 0.0079
CAAGGAGTTA | 1.01 ± 0.04
CAAGGGGACG | 1.004 ± 0.0082
CAAGGGGGGC | 0.972 ± 0.03
CAAGGGGTCG | 0.9946 ± 0.0066
CAAGGGTATG | 1.03 ± 0.046
CAAGGGTCGG | 0.996 ± 0.033
CAAGGTGGAT | 1.051 ± 0.009
CAAGGTTATA | 1 ± 0.022
CAAGTACGGA | 1.1 ± 0.17
CAAGTATCGG | 0.973 ± 0.027
CAAGTATGGG | 0.974 ± 0.035

Sequence | switch fluorescence ratio
CAAGTATTTA | 1.03 ± 0.011
CAAGTCAAGA | 1.0299 ± 0.00028
CAAGTCAAGG | 1.007 ± 0.0062
CAAGTCAGTA | 0.991 ± 0.025
CAAGTCTATT | 1.01 ± 0.04
CAAGTGCCTG | 1.01 ± 0.025
CAAGTGTATC | 1.02 ± 0.045
CAAGTGTTGG | 1.01 ± 0.05
CAAGTTAAAG | 1.01 ± 0.015
CAAGTTGTGT | 0.9774 ± 0.0087
CAAGTTTTTG | 1.01 ± 0.033
CAATAAAATC | 0.9924 ± 0.0019
CAATAAGGGG | 1.04 ± 0.1
CAATAATGTG | 0.968 ± 0.034
CAATACAGGG | 1.04 ± 0.042
CAATAGATGG | 0.999 ± 0.016
CAATAGTAGA | 1.01 ± 0.036
CAATATAGTG | 0.981 ± 0.024
CAATATATTT | 0.982 ± 0.0049
CAATATCCCG | 1.05 ± 0.028
CAATATGACT | 0.991 ± 0.092
CAATCACAGG | 1.286 ± 0.0086
CAATCGACCT | 1.27 ± 0.046

Sequence | switch fluorescence ratio
CAATCTAAAT | 0.969 ± 0.027
CAATGAAAGC | 1.04 ± 0.021
CAATGAGCCG | 1.02 ± 0.052
CAATGAGTTT | 0.97 ± 0.033
CAATGATTGA | 1.02 ± 0.018
CAATGCATGC | 1.14 ± 0.082
CAATGCGGGG | 1.01 ± 0.023
CAATGGAAAT | 0.984 ± 0.025
CAATGGAGAA | 1.01 ± 0.021
CAATGGAGGA | 1.011 ± 0.0058
CAATGGCCTG | 0.984 ± 0.013
CAATGGGAG | 0.988 ± 0.014
CAATGGGGTA | 0.992 ± 0.012
CAATGGGGTT | 1.02 ± 0.027
CAATGGTTCA | 1.01 ± 0.013
CAATGTCGTT | 0.985 ± 0.047
CAATGTCTGG | 1.008 ± 0.0027
CAATGTGAAA | 1.008 ± 0.0093
CAATTATGAC | 1 ± 0.045
CAATTCCGTG | 1.02 ± 0.022
CAATTGCAAT | 1.02 ± 0.02
CAATTGCGTA | 0.981 ± 0.068
CAATTGGCCT | 1.05 ± 0.03

Sequence | switch fluorescence ratio
CAATTGGTAC | 1.05 ± 0.013
CAATTGTCGT | 0.991 ± 0.033
CAATTGTGGG | 0.996 ± 0.026
CAATTTAATG | 0.999 ± 0.019
CAATTTACGG | 1.1 ± 0.036
CAATTTCCAG | 1.02 ± 0.026
CAATTTGAAG | 0.978 ± 0.051
CAATTTGTGG | 0.968 ± 0.021
CAATTTTATA | 1.033 ± 0.0026
CAATTTTGGA | 1.01 ± 0.028
CACAACACTC | 1.37 ± 0.044
CACAACGGTG | 1.04 ± 0.033
CACAAGGACG | 0.962 ± 0.017
CACAGCAGTC | 2.62 ± 0.34
CACAGGCCCA | 1.04 ± 0.056
CACATTGTCC | 0.9773 ± 0.0025
CACCGGTTCT | 1.03 ± 0.011
CACCTGGGGG | 1.13 ± 0.11
CACGACTTTT | 1.05 ± 0.04
CACGAGTTGG | 1.014 ± 0.0049
CACGATATTC | 1.18 ± 0.027
CACGCGGAGG | 1.03 ± 0.039
CACGGCCGAA | 0.973 ± 0.013

Sequence | switch fluorescence ratio
CACGGGCGGG | 1.05 ± 0.063
CACGGGCTTC | 1.016 ± 0.0084
CACGGGGAAC | 1.28 ± 0.32
CACGGGGGGC | 1.02 ± 0.054
CACGGGGGGT | 1.02 ± 0.052
CACGGGGTTG | 0.982 ± 0.069
CACGGTACGT | 1.06 ± 0.022
CACGTAATTA | 1.25 ± 0.048
CACGTATTCA | 1.15 ± 0.045
CACGTTTGTT | 1.027 ± 0.004
CACTAAAGAT | 1.004 ± 0.0052
CACTAATAAT | 1.033 ± 0.0029
CACTAATTAA | 1.004 ± 0.009
CACTACGAAT | 1.051 ± 0.007
CACTAGAGTG | 1.021 ± 0.0063
CACTAGATGG | 0.992 ± 0.02
CACTAGTAAA | 0.9984 ± 0.0094
CACTATAATG | 1.05 ± 0.042
CACTCATTTT | 0.98 ± 0.033
CACTCCTGTG | 1.01 ± 0.04
CACTCGCCTC | 1.134 ± 0.0068
CACTCTAGGC | 1.07 ± 0.02
CACTGGACGG | 1.28 ± 0.049

Sequence | switch fluorescence ratio
CACTGGCATG | 0.998 ± 0.029
CACTGGGGGA | 0.9949 ± 0.0013
CACTGTGTTG | 0.987 ± 0.035
CACTTACGTT | 1.347 ± 0.012
CACTTAGGGG | 1.01 ± 0.022
CACTTAGGTG | 1.19 ± 0.032
CACTTGGGCG | 1.033 ± 0.0077
CACTTTGGTT | 1.02 ± 0.011
CACTTTTTTT | 1.01 ± 0.063
CAGAAAATGG | 1 ± 0.012
CAGAAATATT | 1.01 ± 0.075
CAGAAATTGG | 1.013 ± 0.01
CAGAACGCTG | 1.35 ± 0.12
CAGAACGGCA | 1.095 ± 0.0092
CAGAACGTTG | 0.983 ± 0.016
CAGAACTGCG | 1.01 ± 0.015
CAGAAGCGAT | 1.33 ± 0.025
CAGACAGTTT | 0.993 ± 0.013
CAGACCTCGT | 1 ± 0.013
CAGACTGGGG | 1 ± 0.039
CAGAGAGCGG | 0.9815 ± 0.0031
CAGAGAGCGT | 1.008 ± 0.0068
CAGAGAGGTG | 1.07 ± 0.041

Sequence | switch fluorescence ratio
CAGAGAGTTT | 0.9851 ± 0.0044
CAGAGCGGGG | 0.998 ± 0.023
CAGAGGAACT | 0.999 ± 0.035
CAGAGGAGGC | 0.987 ± 0.016
CAGAGGCCAG | 0.993 ± 0.025
CAGAGGGAAT | 1.05 ± 0.032
CAGAGGGCAG | 1.02 ± 0.047
CAGAGGGTGT | 1.12 ± 0.032
CAGAGGTCGT | 1.013 ± 0.0081
CAGAGTTCGG | 1.03 ± 0.015
CAGAGTTTGA | 0.969 ± 0.0047
CAGATAGGTT | 1.09 ± 0.14
CAGATCAAGT | 1.016 ± 0.0034
CAGATCACGA | 1.01 ± 0.017
CAGATGGGAG | 1.02 ± 0.014
CAGATGGTGT | 1.02 ± 0.015
CAGATTCGAG | 1.008 ± 0.01
CAGATTGATG | 0.983 ± 0.043
CAGATTGGGG | 1 ± 0.025
